These results are taken from the supplement of paper PMC9112550, “Optimization of the antimicrobial peptide Bac7 by deep mutational scanning” (BMC Biology, 2022).
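Further: peptides expressed intracellularly from a pBAD plasmid library in pooled LB shake-flask culture, induced with 0.3% L-arabinose, DNA abundance read by NGS, three biological replicates, DESeq2 with apeglm shrinkage.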

For the series, the system named is Escherichia coli TOP10. The experiment in a line: shrunken log2 fold change of peptide-encoding DNA abundance (4.5 h post-induction vs induction); higher = less antimicrobial activity (less host growth inhibition). The conditions noted are these: time post-induction: 4.5 h; library: site-saturation at positions 5, 18, 19, 20.
For RRIRRRPPRLPRPRPRPWSDPRP, the “shrunken log2 fold change” value was -0.107. Under RRIRVRPPRLPRPRPRPLCVPRP stands 1.22. Regarding RRIRLRPPRLPRPRPRPICDPRP, the “shrunken log2 fold change” value worked out at 0.0695.

RRIRSRPPRLPRPRPRPALSPRP: the “shrunken log2 fold change” value is 0.497. Under RRIRERPPRLPRPRPRPCGRPRP stands -0.0316; under RRIRKRPPRLPRPRPRPAKKPRP, 1.06. Under RRIRMRPPRLPRPRPRPHFLPRP stands -0.235; under RRIRNRPPRLPRPRPRPYKRPRP, -1.27. Under RRIRMRPPRLPRPRPRPQQEPRP stands 0.137; under RRIRYRPPRLPRPRPRPWNRPRP, -0.0135; under RRIRFRPPRLPRPRPRPHWHPRP, -0.444.

In the case of RRIRNRPPRLPRPRPRPHNQPRP, the “shrunken log2 fold change” value is -0.7. Under RRIRQRPPRLPRPRPRPHFAPRP stands 0.0503; under RRIRYRPPRLPRPRPRPYNLPRP, 0.00739.

RRIRSRPPRLPRPRPRPTKHPRP: the “shrunken log2 fold change” value was -0.151.

For the sequence RRIRQRPPRLPRPRPRPNPNPRP, the “shrunken log2 fold change” value was -0.0129.

On to RRIRNRPPRLPRPRPRPFKKPRP, for which the “shrunken log2 fold change” value was -0.263. Under RRIRRRPPRLPRPRPRPGFLPRP stands -0.0551; under RRIRHRPPRLPRPRPRPILEPRP, 0.077; under RRIRIRPPRLPRPRPRPEHFPRP, -0.0163. With RRIRIRPPRLPRPRPRPYIDPRP the figure was -0.484; with RRIRPRPPRLPRPRPRPPWGPRP, 0.34. On to RRIRRRPPRLPRPRPRPNCPPRP, for which the “shrunken log2 fold change” value stood at 0.039. Under RRIRYRPPRLPRPRPRPTIDPRP stands -0.271; under RRIRYRPPRLPRPRPRPGRAPRP, 0.17; under RRIRNRPPRLPRPRPRPFYYPRP, -0.877. Under RRIRRRPPRLPRPRPRPYCCPRP stands -0.565; under RRIRHRPPRLPRPRPRPFPPPRP, -0.228; under RRIRIRPPRLPRPRPRPPEWPRP, 0.0764. Turning to RRIRARPPRLPRPRPRPHRFPRP, the “shrunken log2 fold change” value is -0.176. Under RRIRSRPPRLPRPRPRPNYVPRP stands -0.906. In the case of RRIRARPPRLPRPRPRPWWVPRP, the “shrunken log2 fold change” value came out at 0.066. With RRIRCRPPRLPRPRPRPPYNPRP the figure was -0.618. As for RRIRARPPRLPRPRPRPKHAPRP, the “shrunken log2 fold change” value amounted to 0.757. In the case of RRIRFRPPRLPRPRPRPFFSPRP, the “shrunken log2 fold change” value is -0.59. With RRIRHRPPRLPRPRPRPVKNPRP the figure was 0.0467; with RRIRTRPPRLPRPRPRPLIAPRP, 0.112. Under RRIRRRPPRLPRPRPRPSLLPRP stands 0.17; under RRIRLRPPRLPRPRPRPQSHPRP, -0.349; under RRIRRRPPRLPRPRPRPLDCPRP, 0.107.

On to RRIRHRPPRLPRPRPRPHWKPRP, for which the “shrunken log2 fold change” value is -0.337. In the case of RRIRERPPRLPRPRPRPGVSPRP, the “shrunken log2 fold change” value is -0.00674.

As for RRIRNRPPRLPRPRPRPGTGPRP, the “shrunken log2 fold change” value is -0.127. For RRIRMRPPRLPRPRPRPAPMPRP, the “shrunken log2 fold change” value turned out to be 0.953. For the sequence RRIRPRPPRLPRPRPRPSKCPRP, the “shrunken log2 fold change” value was -0.0749. As for RRIRIRPPRLPRPRPRPRDQPRP, the “shrunken log2 fold change” value was -0.0489. For RRIRYRPPRLPRPRPRPKPTPRP, the “shrunken log2 fold change” value was determined as 0.278. As to RRIRQRPPRLPRPRPRPSFQPRP, the “shrunken log2 fold change” value was -0.467. Under RRIRQRPPRLPRPRPRPIYGPRP stands -0.00674; under RRIRRRPPRLPRPRPRPIFLPRP, 0.0228. For RRIRTRPPRLPRPRPRPWHVPRP, the “shrunken log2 fold change” value was 0.0162.

On to RRIRRRPPRLPRPRPRPCGSPRP, for which the “shrunken log2 fold change” value was 0.0143.

For the sequence RRIRWRPPRLPRPRPRPKFSPRP, the “shrunken log2 fold change” value worked out at 0.346. Regarding RRIRSRPPRLPRPRPRPDMKPRP, the “shrunken log2 fold change” value was -0.43. As to RRIRMRPPRLPRPRPRPGSPPRP, the “shrunken log2 fold change” value stood at 0.136. With RRIRFRPPRLPRPRPRPHDEPRP the figure was 0.099; with RRIRKRPPRLPRPRPRPNHWPRP, 0.0915; with RRIRHRPPRLPRPRPRPPLQPRP, -0.127. Under RRIRKRPPRLPRPRPRPCPAPRP stands 0.17; under RRIRVRPPRLPRPRPRPDHNPRP, -0.488; under RRIRDRPPRLPRPRPRPKLVPRP, 0.0305. With RRIRDRPPRLPRPRPRPSVPPRP, the “shrunken log2 fold change” value was -0.329. Turning to RRIRNRPPRLPRPRPRPQRHPRP, the “shrunken log2 fold change” value was -0.0566. Consider RRIRIRPPRLPRPRPRPVLWPRP, for which the “shrunken log2 fold change” value was found to be 0.199. In the case of RRIRRRPPRLPRPRPRPIMDPRP, the “shrunken log2 fold change” value stood at 0.01. On to RRIRCRPPRLPRPRPRPRRNPRP, for which the “shrunken log2 fold change” value was -0.0367.

With RRIRKRPPRLPRPRPRPNKAPRP, the “shrunken log2 fold change” value was determined as 0.0692. On to RRIRIRPPRLPRPRPRPIECPRP, for which the “shrunken log2 fold change” value was -0.314. With RRIRSRPPRLPRPRPRPLRIPRP the figure was -0.0455. With RRIRYRPPRLPRPRPRPPSAPRP the figure was 0.388.

With RRIRPRPPRLPRPRPRPDWCPRP, the “shrunken log2 fold change” value was -0.179. Under RRIRWRPPRLPRPRPRPMVAPRP stands 0.457. With RRIRRRPPRLPRPRPRPGSNPRP the figure was 0.0402; with RRIRCRPPRLPRPRPRPMKTPRP, -0.11; with RRIRGRPPRLPRPRPRPCNDPRP, 0.376. As for RRIRNRPPRLPRPRPRPWSPPRP, the “shrunken log2 fold change” value was -0.245.

On to RRIRARPPRLPRPRPRPVTIPRP, for which the “shrunken log2 fold change” value is -0.207.

In the case of RRIRLRPPRLPRPRPRPKEAPRP, the “shrunken log2 fold change” value was -0.011. Regarding RRIRMRPPRLPRPRPRPTLYPRP, the “shrunken log2 fold change” value came to 0.16.

In the case of RRIRWRPPRLPRPRPRPQPQPRP, the “shrunken log2 fold change” value worked out at 0.417.

Take RRIRFRPPRLPRPRPRPWVGPRP: the “shrunken log2 fold change” value was -0.0721.

Take RRIRLRPPRLPRPRPRPRWAPRP: the “shrunken log2 fold change” value was found to be 0.145. Under RRIRDRPPRLPRPRPRPCNGPRP stands -0.143; under RRIRFRPPRLPRPRPRPHRGPRP, 0.0928. With RRIRQRPPRLPRPRPRPFMDPRP the figure was 0.0499; with RRIRYRPPRLPRPRPRPAEKPRP, -0.0964; with RRIRTRPPRLPRPRPRPTLQPRP, 0.336.

For the sequence RRIRRRPPRLPRPRPRPYVLPRP, the “shrunken log2 fold change” value amounted to 0.00941. For RRIRIRPPRLPRPRPRPCFFPRP, the “shrunken log2 fold change” value was -0.503.

For the sequence RRIRVRPPRLPRPRPRPPDFPRP, the “shrunken log2 fold change” value was found to be 0.0119.

Regarding RRIRVRPPRLPRPRPRPSRCPRP, the “shrunken log2 fold change” value is -0.101.

In the case of RRIRERPPRLPRPRPRPACQPRP, the “shrunken log2 fold change” value is 0.146. With RRIRTRPPRLPRPRPRPMPTPRP the figure was 0.0982; with RRIRARPPRLPRPRPRPTPFPRP, 0.609. With RRIRDRPPRLPRPRPRPLDYPRP the figure was -0.242; with RRIRWRPPRLPRPRPRPDWWPRP, 0.0352; with RRIRTRPPRLPRPRPRPDIWPRP, -0.392. Regarding RRIRPRPPRLPRPRPRPSCFPRP, the “shrunken log2 fold change” value is -0.193. Under RRIRHRPPRLPRPRPRPLMSPRP stands -0.196; under RRIRQRPPRLPRPRPRPTDRPRP, 0.0938; under RRIRPRPPRLPRPRPRPSTGPRP, -0.263. For RRIRARPPRLPRPRPRPLWPPRP, the “shrunken log2 fold change” value came out at 0.646. Under RRIRSRPPRLPRPRPRPMHKPRP stands -0.112; under RRIRQRPPRLPRPRPRPDTYPRP, -0.154.

For the sequence RRIRMRPPRLPRPRPRPWDLPRP, the “shrunken log2 fold change” value turned out to be 0.36.

Consider RRIRDRPPRLPRPRPRPTFPPRP, for which the “shrunken log2 fold change” value was found to be 0.0873.

With RRIRIRPPRLPRPRPRPRWSPRP, the “shrunken log2 fold change” value came out at 0.0458. For the sequence RRIRYRPPRLPRPRPRPGFCPRP, the “shrunken log2 fold change” value is -0.266. As to RRIRARPPRLPRPRPRPDYHPRP, the “shrunken log2 fold change” value is -0.879.

On to RRIRCRPPRLPRPRPRPHANPRP, for which the “shrunken log2 fold change” value is -0.0108. Under RRIRWRPPRLPRPRPRPHSVPRP stands 0.0489.

On to RRIRDRPPRLPRPRPRPNTLPRP, for which the “shrunken log2 fold change” value is -0.269.

Take RRIRCRPPRLPRPRPRPTGKPRP: the “shrunken log2 fold change” value came to 0.355. Under RRIRWRPPRLPRPRPRPGQQPRP stands -0.17; under RRIRPRPPRLPRPRPRPGYKPRP, -0.141; under RRIRTRPPRLPRPRPRPQYHPRP, -0.329.

As to RRIRHRPPRLPRPRPRPKNIPRP, the “shrunken log2 fold change” value is -0.477. Under RRIRVRPPRLPRPRPRPKGTPRP stands -0.171; under RRIRRRPPRLPRPRPRPCMRPRP, 0.264.

Consider RRIRTRPPRLPRPRPRPCMFPRP, for which the “shrunken log2 fold change” value was -0.515. Take RRIRHRPPRLPRPRPRPSIRPRP: the “shrunken log2 fold change” value is -0.345. On to RRIRDRPPRLPRPRPRPYPSPRP, for which the “shrunken log2 fold change” value is -0.167. On to RRIRTRPPRLPRPRPRPQEWPRP, for which the “shrunken log2 fold change” value is -0.0128. With RRIRVRPPRLPRPRPRPAKVPRP the figure was 0.203; with RRIRERPPRLPRPRPRPKWSPRP, -0.146.
